Patent publication US6548266B1, “Assay for detecting the enzymatic activity of a phosphorylation enzyme using enhanced signal generation” (Kinetek Pharmaceuticals, Inc., priority 1999, dated 2003)
Each block holds one substance with its values, some of them ahead of it.

What was measured:
ERK1 [1] = biological target: T1, ERK1 (Homo sapiens, UniProt P27361); assay: Phosphorylation of SEK1-CT immobilized on covalent, amine-binding strips; assay type: biochemical; details: conjugation simultaneous with phosphorylation, 15 min
Method: Immobilization of SEK1-CT on covalent, amine-binding strips was also accomplished in a stepwise procedure: the polymer was immobilized on a covalent, amine-binding plate first (1 hour), then treated with SMCC (1 hour). Conjugation of SEK1-CT to the immobilized polylysine was achieved simultaneously with the phosphorylation by ERK1. The polymers used were polylysine of MW ˜35,000 and poly(lys, ala) 1:1 copolymer of MW ˜35,000. The assay mixture comprising 5 μL of SEK1-CT, 5 μL of ADB, 10 μL of ERK1 and 10 μL of γ-^32P-ATP was incubated at room temperature for 15 minutes. An aliquot (10 μL) was then spotted on a phosphocellulose plate to stop the reaction. The radioactivity on the plate was determined using a Trilux Microbeta liquid scintillation counter. The radioactivity remaining on the surface of the wells after the plate was washed with water and 1% phosphoric acid was determined using a Beckmann liquid scintillation counter. […] Also, the immobilization of polymer-conjugated SEK1-CT on the surfaces enhanced its phosphorylation. The radioactivity observed for the unconjugated SEK1-CT may result from non-specific binding of the amine groups on SEK1-CT to the plate. This non-specific binding could be eliminated by using polylysine as the blocking agent.

ERK1 [2] = biological target: T1, ERK1; assay: Phosphorylation of substrate immobilized on covalent, amine-binding plates; assay type: biochemical; details: amine-binding plate
Method: (§1) The polylysine-conjugated peptide substrate was diluted with a PBS buffer (pH 7.4) to a concentration of 0.1 mg/mL. Then 100 μL of the diluted solution was placed into each well of the covalent, amine-binding plate. The plate was incubated at room temperature for one hour and then washed with the PBS buffer three times and distilled water once. The substrate-immobilized plate was then phosphorylated as using standard assay conditions: 10 μL of the indicated enzyme, 15 μL of ADB and 5 μL of γ-^32P-ATP at room temperature for 15 minutes. After phosphorylation, the plate was rinsed sequentially with water, 1% phosphoric acid solution, water, and ethanol. The radioactivity in each well was determined using a Trilux Microbeta liquid scintillation counter. Two polylysine-conjugated substrates were immobilized on the covalent, amine-binding plates and phosphorylation of these immobilized polylysine-conjugated substrates was carried out. Both systems yielded reasonably high signals and the background signals on these plates were less than 500 cpm.
(§2) Effect of pH. In the case of immobilization to covalent, amine-binding plates, the pH effect was investigated. The immobilization of a conjugated-substrate to an covalent, amine-binding plate was achieved by incubating 100 μL of PBS buffer solution containing 10 μg of the conjugated-substrate at room temperature for an hour. […]

ERK1 [3] = biological target: T1, ERK1; assay: Two-plate assay; assay type: biochemical
Method: (§3) The one-plate assay was compared with the two-plate assay under the normal conditions employed by the high throughput screening robotic system: a mixture of 5 μL substrate (5 μg), 10 µL enzyme, 10 μL ADB and 5 μL γ-^32P ATP was incubated at room temperature for 20 minutes. In the one-plate assay, a non-covalent, medium binding plate was used.

ERK1 [4] = biological target: T1, ERK1; assay: Phosphorylation of peptide substrate in solution, spotted on phosphocellulose plate, scintillation counting; assay type: biochemical; details: for Radioactivity (cpm), polymer effect on the phosphorylation of SEK1-CT by ERK1: SEK1-CT conjugated to the polymer named in the row; for Enhancing effect of polymeric carrier on the substrate activity: SEK1-CT conjugated to the polymer, result in words
Method: (§4) The phosphorylation assay mixture typically comprised:
(§5) The phosphorylation of the polymer-conjugated substrate was carried out in a solution containing 5 μL (˜5 μg peptide) of the conjugated substrate, 10 μL of the indicated enzyme, 10 μL of ADB, and 5 μL of γ-^32P-ATP. After incubation at room temperature for 15 minutes, the reaction was stopped by spotting 10 μL of the sample solution on a phosphocellulose plate and washing with water, 1% phosphoric acid solution, water and ethanol. The radioactivity in each well was measured using a Trilux Microbeta 1450 liquid scintillation counter (Wallac).

ERK1 [5] = biological target: T1, ERK1; assay: One-plate assay (non-covalent, medium binding plate); assay type: biochemical
Method: as §3

PKB [6] = biological target: T2, PKB (Homo sapiens, UniProt P31749); assay: Two-plate assay; assay type: biochemical
T2 construct: made in house; host or cells: insect cells
Method: as §3

PKB [7] = biological target: T2, PKB; assay: Phosphorylation of peptide substrate in solution, spotted on phosphocellulose plate, scintillation counting; assay type: biochemical
Method: as §4, §5

PKB [8] = biological target: T2, PKB; assay: One-plate assay (non-covalent, medium binding plate); assay type: biochemical
Method: as §3

PKA = biological target: T3, PKA (Bos taurus, UniProt P00517); assay: Phosphorylation of peptide substrate in solution, spotted on phosphocellulose plate, scintillation counting; assay type: biochemical, bovine
T3 construct: PKA was isloated from bovine heart; from tissue; host or cells: bovine heart
Method: CDK1, PAK and PIM were grown in bacterial culture at Kinetek Pharmaceuticals. PIM was isolated as described by Palaty et al. (1997) J Biol Chem 272:10514-10521. PKA was isloated from bovine heart. PKB was expressed in insect cells. S6K was isolated according to Grove et al. (1991) Mol Cell Bio 11:5541-5550. Kinase stock solutions were prepared at concentrations of 1-10 mg/mL in 150 mM Tris-Cl (pH 7.5) containing 5 mg/mL BSA and 100 mM MgCl2.
as §4, §5

PIM [9] = biological target: T4, PIM (Xenopus laevis, UniProt Q91822); assay: Phosphorylation of substrate immobilized on covalent, amine-binding plates; assay type: biochemical; details: amine-binding plate
T4 construct: made in house; host or cells: bacterial culture
Method: as §1, §2

PIM [10] = biological target: T4, PIM; assay: Phosphorylation of peptide substrate in solution, spotted on phosphocellulose plate, scintillation counting; assay type: biochemical
Method: as §4, §5

PAK = assay: as above; assay type: biochemical
Method: as §4, §5

S6K = biological target: T5, S6K (Homo sapiens, UniProt P23443); assay: as above; assay type: biochemical; details: for Ratio: after/before conjugation; for Radioactivity (cpm) Before Conjugation: free peptide before conjugation to polymer; for Radioactivity (cpm) Before Conjugation / Radioactivity (cpm) After conjugation: 15 min room temperature; for Radioactivity (cpm) After conjugation: peptide after conjugation to polymer
T5 construct: made in house
Method: as §4, §5

CDK1 = biological target: T6, CDK1 (Homo sapiens, UniProt P06493); assay: as above; assay type: biochemical
T6 construct: made in house; host or cells: bacterial culture
Method: as §4, §5

[11] = free peptide before conjugation to polymer
[12] = peptide after conjugation to polymer
[13] = conjugated substrate, 20 minutes

T4 sequence (Q91822 whole entry): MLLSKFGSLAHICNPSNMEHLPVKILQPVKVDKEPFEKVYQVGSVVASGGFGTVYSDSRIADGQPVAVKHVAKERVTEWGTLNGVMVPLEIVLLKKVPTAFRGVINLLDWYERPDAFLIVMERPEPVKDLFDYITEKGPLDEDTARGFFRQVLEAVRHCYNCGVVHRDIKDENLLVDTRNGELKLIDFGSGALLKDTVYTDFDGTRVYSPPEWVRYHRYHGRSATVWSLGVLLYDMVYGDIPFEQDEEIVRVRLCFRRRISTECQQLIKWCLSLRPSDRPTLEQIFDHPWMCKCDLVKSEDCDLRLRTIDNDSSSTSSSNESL
T5 sequence (P23443 whole entry): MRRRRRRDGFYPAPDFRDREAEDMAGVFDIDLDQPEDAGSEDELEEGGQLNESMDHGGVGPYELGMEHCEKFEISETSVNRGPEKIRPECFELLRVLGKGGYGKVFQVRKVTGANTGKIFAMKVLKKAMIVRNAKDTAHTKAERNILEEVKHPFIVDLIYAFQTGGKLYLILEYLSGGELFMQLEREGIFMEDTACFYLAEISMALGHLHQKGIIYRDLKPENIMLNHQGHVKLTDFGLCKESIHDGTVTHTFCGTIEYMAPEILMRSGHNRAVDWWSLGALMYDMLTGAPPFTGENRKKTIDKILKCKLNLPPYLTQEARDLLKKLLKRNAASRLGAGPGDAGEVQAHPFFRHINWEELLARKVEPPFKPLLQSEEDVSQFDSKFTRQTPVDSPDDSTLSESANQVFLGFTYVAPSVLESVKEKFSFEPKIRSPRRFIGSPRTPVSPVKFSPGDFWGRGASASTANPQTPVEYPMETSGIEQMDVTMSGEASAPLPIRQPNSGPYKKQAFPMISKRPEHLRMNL
T2 sequence (P31749 whole entry, species assumed): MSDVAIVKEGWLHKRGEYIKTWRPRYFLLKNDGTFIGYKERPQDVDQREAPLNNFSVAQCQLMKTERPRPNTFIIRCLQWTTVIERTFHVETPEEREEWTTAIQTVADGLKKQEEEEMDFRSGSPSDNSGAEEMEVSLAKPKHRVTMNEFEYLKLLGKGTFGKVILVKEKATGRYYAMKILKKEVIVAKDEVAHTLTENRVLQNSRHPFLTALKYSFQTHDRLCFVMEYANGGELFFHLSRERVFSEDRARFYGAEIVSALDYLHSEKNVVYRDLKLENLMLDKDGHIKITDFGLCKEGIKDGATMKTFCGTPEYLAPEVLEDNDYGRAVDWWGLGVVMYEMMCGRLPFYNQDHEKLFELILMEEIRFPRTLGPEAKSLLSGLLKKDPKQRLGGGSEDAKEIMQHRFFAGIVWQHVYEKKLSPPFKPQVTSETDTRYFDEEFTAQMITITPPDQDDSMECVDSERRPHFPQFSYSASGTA
T6 sequence (P06493 whole entry, species assumed): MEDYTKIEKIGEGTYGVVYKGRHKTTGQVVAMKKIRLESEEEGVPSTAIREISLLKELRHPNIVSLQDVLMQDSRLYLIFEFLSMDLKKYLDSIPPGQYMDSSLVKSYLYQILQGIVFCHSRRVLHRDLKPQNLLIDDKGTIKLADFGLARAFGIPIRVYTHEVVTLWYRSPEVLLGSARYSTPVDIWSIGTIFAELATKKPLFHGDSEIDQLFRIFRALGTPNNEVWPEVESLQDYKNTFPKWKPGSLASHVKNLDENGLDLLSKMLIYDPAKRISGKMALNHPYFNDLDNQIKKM
T1 sequence (P27361 whole entry, species assumed): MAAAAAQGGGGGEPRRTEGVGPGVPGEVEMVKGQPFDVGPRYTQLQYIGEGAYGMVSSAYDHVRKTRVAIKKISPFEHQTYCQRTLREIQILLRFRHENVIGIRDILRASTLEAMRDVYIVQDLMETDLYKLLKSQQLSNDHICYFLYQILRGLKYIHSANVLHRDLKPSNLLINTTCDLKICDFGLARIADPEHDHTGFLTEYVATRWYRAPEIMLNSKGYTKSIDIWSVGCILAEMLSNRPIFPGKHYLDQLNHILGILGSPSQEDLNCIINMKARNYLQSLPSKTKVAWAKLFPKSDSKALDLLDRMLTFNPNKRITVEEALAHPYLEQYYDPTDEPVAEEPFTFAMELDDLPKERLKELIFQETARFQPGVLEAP

Substance: Polylysine
Radioactivity (cpm), polymer effect on the phosphorylation of SEK1-CT by ERK1 (ERK1 [4]): 211234 cpm | Enhancing effect of polymeric carrier on the substrate activity (ERK1 [4]): highest enhancing effect

Substance: CKRPRAASFAE [PKB-sub]
S/N ratio PKB-sub (PKB [6]): 22 | Radioactivity (cpm) PKB-sub/PKB Free (PKB [6]; free substrate, 20 minutes): 38000 cpm | Ratio (PKB [7]; after/before conjugation): 1.91 | Radioactivity (cpm) Before Conjugation (PKB [7]; [11]): 54300 cpm | Radioactivity (cpm) After conjugation (PKB [7]; [12]): 103900 cpm | S/N ratio PKB-sub (PKB [8]): 81 | Radioactivity (cpm) PKB-sub/PKB Conj (PKB [8]; [13]): 48300 cpm

Substance: Polyarginine
Radioactivity (cpm), polymer effect on the phosphorylation of SEK1-CT by ERK1 (ERK1 [4]): 91431 cpm | Enhancing effect of polymeric carrier on the substrate activity (ERK1 [4]): certain enhancement

Substance: CGRTGRRNSI [CAPK-sub]
Ratio (PKA; after/before conjugation): 1.10 | Radioactivity (cpm) Before Conjugation (PKA; [11]): 35680 cpm | Radioactivity (cpm) After conjugation (PKA; [12]): 39425 cpm | Radioactivity (cpm) Free substrate (PIM [9]): ≦300 cpm | Ratio (PIM [10]; after/before conjugation): 2.31 | Radioactivity (cpm) Before Conjugation (PIM [10]; [11]): 18000 cpm | Radioactivity (cpm) After conjugation (PIM [10]; [12]): 41500 cpm | Ratio (PAK; after/before conjugation): 2.14 | Radioactivity (cpm) Before Conjugation (PAK; [11]): 31050 cpm | Radioactivity (cpm) After conjugation (PAK; [12]): 66510 cpm | Ratio (S6K): 6.25 | Radioactivity (cpm) Before Conjugation (S6K): 10000 cpm | Radioactivity (cpm) After conjugation (S6K): 62500 cpm | Ratio (CDK1; after/before conjugation): 3.76 | Radioactivity (cpm) Before Conjugation (CDK1; [11]): 12500 cpm | Radioactivity (cpm) After conjugation (CDK1; [12]): 47000 cpm

Now from value to substance:

Radioactivity (cpm) (ERK1 [1]): 7570 cpm | Radioactivity (cpm) Free substrate (ERK1 [2]): <500 cpm | S/N ratio SEK1-CT (ERK1 [3]): 16 | Radioactivity (cpm) SEK1-CT/ERK1 Free (ERK1 [3]; free substrate, 20 minutes): 2800 cpm | Ratio (ERK1 [4]; after/before conjugation): 48.28 | Radioactivity (cpm) Before Conjugation (ERK1 [4]; [11]): 2390 cpm | Radioactivity (cpm) After conjugation (ERK1 [4]; [12]): 115400 cpm | S/N ratio SEK1-CT (ERK1 [5]): 117 | Radioactivity (cpm) SEK1-CT/ERK1 Conj (ERK1 [5]; [13]): 41000 cpm
Substance: CKILDQMPATPSSPMYVD [SEK1-CT]

Enhancing effect of polymeric carrier on the substrate activity (ERK1 [4]): marginal enhancing effect
Substance: Polyhistidine

Ratio (S6K): 2.82 | Radioactivity (cpm) Before Conjugation (S6K): 14000 cpm | Radioactivity (cpm) After conjugation (S6K): 39450 cpm
Substance: CKRRRLASLR [S6K-sub]
